Experimental data: patent US20250218531A1 (ABSCI, published 2025)
Changes are numbered by the printed parent chain.

B1: Trastuzumab HCDR3 variant ARYLEYTYAWDY (Fab, V domains shown)
VH: EVQLVESGGGLVQPGGSLRLSCAASGFNIKDTYIHWVRQAPGKGLEWVARIYPTNGYTRYADSVKGRFTISADTSKNTAYLQMNSLRAEDTAVYYCARYLEYTYAWDYWGQGTLVTVSS
VL: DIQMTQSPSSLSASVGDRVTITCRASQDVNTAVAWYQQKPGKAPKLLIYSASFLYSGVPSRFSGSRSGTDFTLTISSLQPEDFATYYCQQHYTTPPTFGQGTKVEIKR
B2: Trastuzumab HCDR3 variant VKHGIDYYWYGD (Fab, V domains shown)
VH: EVQLVESGGGLVQPGGSLRLSCAASGFNIKDTYIHWVRQAPGKGLEWVARIYPTNGYTRYADSVKGRFTISADTSKNTAYLQMNSLRAEDTAVYYCVKHGIDYYWYGDWGQGTLVTVSS
VL: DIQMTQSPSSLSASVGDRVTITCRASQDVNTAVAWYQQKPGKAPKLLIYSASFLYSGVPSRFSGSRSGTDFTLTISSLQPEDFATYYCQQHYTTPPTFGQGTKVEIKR
B3: Trastuzumab HCDR3 variant ARYLSYSFAWDY (Fab, V domains shown)
VH: B1 VH with E101S, T103S, Y104F
VL: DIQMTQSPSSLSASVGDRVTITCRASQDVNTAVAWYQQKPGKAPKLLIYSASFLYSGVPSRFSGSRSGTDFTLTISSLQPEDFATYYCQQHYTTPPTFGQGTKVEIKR
B4: Trastuzumab HCDR3 variant ASYMGIVGYYPG (Fab, V domains shown)
VH: B1 VH with R98S, L100M, E101G, Y102I, T103V, Y104G, A105Y, W106Y, D107P, Y108G
VL: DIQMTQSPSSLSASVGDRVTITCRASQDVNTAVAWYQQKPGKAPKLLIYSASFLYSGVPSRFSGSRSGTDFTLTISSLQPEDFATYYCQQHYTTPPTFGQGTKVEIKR
B5: Trastuzumab HCDR3 variant ARYYDDTIYSFY (Fab, V domains shown)
VH: B1 VH with L100Y, E101D, Y102D, Y104I, A105Y, W106S, D107F
VL: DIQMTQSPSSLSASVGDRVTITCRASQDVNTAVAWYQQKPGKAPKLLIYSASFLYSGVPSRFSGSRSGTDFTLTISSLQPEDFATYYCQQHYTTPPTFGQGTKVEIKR
B6: Trastuzumab HCDR3 variant ARYYYSGYYMSV (Fab, V domains shown)
VH: B1 VH with L100Y, E101Y, Y102S, T103G, A105Y, W106M, D107S, Y108V
VL: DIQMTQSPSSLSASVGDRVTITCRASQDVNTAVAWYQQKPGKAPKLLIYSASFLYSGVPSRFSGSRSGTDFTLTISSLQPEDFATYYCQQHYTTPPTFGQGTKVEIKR
B7: Trastuzumab HCDR3 variant ASGDLTAGSSQT (Fab, V domains shown)
VH: EVQLVESGGGLVQPGGSLRLSCAASGFNIKDTYIHWVRQAPGKGLEWVARIYPTNGYTRYADSVKGRFTISADTSKNTAYLQMNSLRAEDTAVYYCASGDLTAGSSQTWGQGTLVTVSS
VL: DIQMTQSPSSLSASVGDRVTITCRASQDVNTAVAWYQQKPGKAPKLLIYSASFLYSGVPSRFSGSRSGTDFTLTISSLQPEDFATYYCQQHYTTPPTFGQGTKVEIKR
B8: Trastuzumab HCDR3 variant TRNGPLYWHWDL (Fab, V domains shown)
VH: B1 VH with A97T, Y99N, L100G, E101P, Y102L, T103Y, Y104W, A105H, Y108L
VL: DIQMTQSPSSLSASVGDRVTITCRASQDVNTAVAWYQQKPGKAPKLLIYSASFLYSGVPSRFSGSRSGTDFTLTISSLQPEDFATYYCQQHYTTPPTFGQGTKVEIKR
B9: Trastuzumab HCDR3 variant TRTRSGAYFFDY (Fab, V domains shown)
VH: B1 VH with A97T, Y99T, L100R, E101S, Y102G, T103A, A105F, W106F
VL: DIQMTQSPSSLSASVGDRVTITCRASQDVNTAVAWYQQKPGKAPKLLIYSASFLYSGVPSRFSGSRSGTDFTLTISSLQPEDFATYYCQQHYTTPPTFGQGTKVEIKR
B10: Trastuzumab HCDR3 variant ATGPYTVYSYPY (Fab, V domains shown)
VH: B7 VH with S98T, D100P, L101Y, A103V, G104Y, S106Y, Q107P, T108Y
VL: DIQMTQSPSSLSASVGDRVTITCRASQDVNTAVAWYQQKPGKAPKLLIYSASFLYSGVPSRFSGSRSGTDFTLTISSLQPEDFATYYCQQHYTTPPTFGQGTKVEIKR
B11: Trastuzumab HCDR3 variant ARYWYGSYVFDY (Fab, V domains shown)
VH: B1 VH with L100W, E101Y, Y102G, T103S, A105V, W106F
VL: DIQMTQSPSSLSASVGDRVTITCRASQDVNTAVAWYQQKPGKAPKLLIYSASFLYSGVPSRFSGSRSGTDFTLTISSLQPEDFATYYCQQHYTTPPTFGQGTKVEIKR
B12: Trastuzumab HCDR3 variant ARYYGYYYYMDY (Fab, V domains shown)
VH: B1 VH with L100Y, E101G, T103Y, A105Y, W106M
VL: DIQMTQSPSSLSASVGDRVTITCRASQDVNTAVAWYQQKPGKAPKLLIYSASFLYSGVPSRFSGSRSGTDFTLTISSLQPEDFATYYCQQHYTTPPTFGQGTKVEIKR
B13: Trastuzumab HCDR3 variant TRTTLGFYAMDY (Fab, V domains shown)
VH: B1 VH with A97T, Y99T, L100T, E101L, Y102G, T103F, W106M
VL: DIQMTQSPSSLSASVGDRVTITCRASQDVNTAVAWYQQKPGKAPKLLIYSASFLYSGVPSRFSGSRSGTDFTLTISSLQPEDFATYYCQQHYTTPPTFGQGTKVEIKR
B14: Trastuzumab HCDR3 variant ARYLSYSYAWDY (Fab, V domains shown)
VH: B1 VH with E101S, T103S
VL: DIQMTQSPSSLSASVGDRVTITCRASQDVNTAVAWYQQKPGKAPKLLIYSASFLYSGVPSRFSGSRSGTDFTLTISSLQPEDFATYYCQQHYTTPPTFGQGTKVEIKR
B15: Trastuzumab HCDR3 variant SRWYGDYFAMDY (Fab, V domains shown)
VH: B1 VH with A97S, Y99W, L100Y, E101G, Y102D, T103Y, Y104F, W106M
VL: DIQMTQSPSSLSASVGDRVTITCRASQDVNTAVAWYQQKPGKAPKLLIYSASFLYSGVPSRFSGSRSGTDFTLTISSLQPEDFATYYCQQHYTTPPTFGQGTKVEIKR
B16: Trastuzumab HCDR3 variant ARYSYGAFYYSI (Fab, V domains shown)
VH: B1 VH with L100S, E101Y, Y102G, T103A, Y104F, A105Y, W106Y, D107S, Y108I
VL: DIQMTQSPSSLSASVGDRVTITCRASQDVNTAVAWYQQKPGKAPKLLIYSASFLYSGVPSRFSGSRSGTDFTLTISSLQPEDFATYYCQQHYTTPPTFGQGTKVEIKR
B17: Trastuzumab HCDR3 variant ARYYGGLYYFDY (Fab, V domains shown)
VH: B1 VH with L100Y, E101G, Y102G, T103L, A105Y, W106F
VL: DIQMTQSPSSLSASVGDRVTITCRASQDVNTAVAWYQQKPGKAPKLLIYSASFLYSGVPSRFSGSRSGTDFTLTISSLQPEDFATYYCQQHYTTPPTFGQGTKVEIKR
B18: Trastuzumab HCDR3 variant TRYYDGYYAMDY (Fab, V domains shown)
VH: B1 VH with A97T, L100Y, E101D, Y102G, T103Y, W106M
VL: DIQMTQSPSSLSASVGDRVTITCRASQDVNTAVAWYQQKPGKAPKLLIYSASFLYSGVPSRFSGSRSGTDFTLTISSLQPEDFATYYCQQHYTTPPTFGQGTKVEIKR
B19: Trastuzumab HCDR3 variant VRYYRGYYYFDY (Fab, V domains shown)
VH: B1 VH with A97V, L100Y, E101R, Y102G, T103Y, A105Y, W106F
VL: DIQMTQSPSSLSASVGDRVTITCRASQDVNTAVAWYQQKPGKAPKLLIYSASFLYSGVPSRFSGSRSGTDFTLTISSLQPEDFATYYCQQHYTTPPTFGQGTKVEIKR
B20: Trastuzumab HCDR3 variant TRYFYDFPYMDY (Fab, V domains shown)
VH: B1 VH with A97T, L100F, E101Y, Y102D, T103F, Y104P, A105Y, W106M
VL: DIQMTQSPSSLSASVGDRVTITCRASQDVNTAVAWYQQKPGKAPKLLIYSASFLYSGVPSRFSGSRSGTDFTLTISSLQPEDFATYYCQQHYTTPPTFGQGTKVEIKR
B21: Trastuzumab HCDR3 variant ASYYDYYYAFGT (Fab, V domains shown)
VH: B1 VH with R98S, L100Y, E101D, T103Y, W106F, D107G, Y108T
VL: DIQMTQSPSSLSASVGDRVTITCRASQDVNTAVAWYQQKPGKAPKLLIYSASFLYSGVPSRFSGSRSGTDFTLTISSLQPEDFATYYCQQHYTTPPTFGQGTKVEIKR
B22: Trastuzumab HCDR3 variant … (Fab, V domains shown)
VH: B1 VH with L100Y, E101D, T103G, A105T, W106F
VL: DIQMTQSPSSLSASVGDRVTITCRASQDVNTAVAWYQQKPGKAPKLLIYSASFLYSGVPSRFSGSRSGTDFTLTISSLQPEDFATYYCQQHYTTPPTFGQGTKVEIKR
B23: Trastuzumab HCDR3 variant ARYQAYDNSYGV (Fab, V domains shown)
VH: B1 VH with L100Q, E101A, T103D, Y104N, A105S, W106Y, D107G, Y108V
VL: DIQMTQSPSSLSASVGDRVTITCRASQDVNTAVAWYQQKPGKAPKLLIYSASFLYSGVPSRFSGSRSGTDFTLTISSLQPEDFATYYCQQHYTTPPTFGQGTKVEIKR
B24: Trastuzumab HCDR3 variant TLNGPLYWMWTL (Fab, V domains shown)
VH: B2 VH with V97T, K98L, H99N, I101P, D102L, Y104W, W105M, Y106W, G107T, D108L
VL: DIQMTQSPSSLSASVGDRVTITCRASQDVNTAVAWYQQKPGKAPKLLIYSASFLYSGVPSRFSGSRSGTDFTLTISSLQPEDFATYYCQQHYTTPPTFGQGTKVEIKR
B25: Trastuzumab HCDR3 variant ARYPEDFYYFDV (Fab, V domains shown)
VH: B1 VH with L100P, Y102D, T103F, A105Y, W106F, Y108V
VL: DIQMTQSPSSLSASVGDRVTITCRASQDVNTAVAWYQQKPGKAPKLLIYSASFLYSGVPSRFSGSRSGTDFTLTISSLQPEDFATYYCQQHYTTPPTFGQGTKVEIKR
B26: Trastuzumab HCDR3 variant ARYYVGYYAMDY (Fab, V domains shown)
VH: B1 VH with L100Y, E101V, Y102G, T103Y, W106M
VL: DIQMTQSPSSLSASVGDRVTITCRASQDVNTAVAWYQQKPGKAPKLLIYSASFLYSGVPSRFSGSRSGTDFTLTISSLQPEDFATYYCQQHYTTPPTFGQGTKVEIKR
B27: Trastuzumab HCDR3 variant ARYLSYSYAWNY (Fab, V domains shown)
VH: B1 VH with E101S, T103S, D107N
VL: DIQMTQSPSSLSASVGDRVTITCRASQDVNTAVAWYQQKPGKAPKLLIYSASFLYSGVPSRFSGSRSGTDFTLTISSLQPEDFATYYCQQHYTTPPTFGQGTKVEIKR
B28: Trastuzumab HCDR3 variant ARYPDYYYAMDY (Fab, V domains shown)
VH: B1 VH with L100P, E101D, T103Y, W106M
VL: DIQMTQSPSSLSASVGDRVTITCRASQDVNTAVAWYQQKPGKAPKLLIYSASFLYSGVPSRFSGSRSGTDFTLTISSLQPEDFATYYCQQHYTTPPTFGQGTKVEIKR
B29: Trastuzumab HCDR3 variant ARYPYGYYAMDY (Fab, V domains shown)
VH: B1 VH with L100P, E101Y, Y102G, T103Y, W106M
VL: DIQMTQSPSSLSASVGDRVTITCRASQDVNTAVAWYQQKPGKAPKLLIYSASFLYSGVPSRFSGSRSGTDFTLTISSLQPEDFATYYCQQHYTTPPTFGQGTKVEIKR
B30: Trastuzumab HCDR3 variant SIYGTDYYWFAD (Fab, V domains shown)
VH: B2 VH with V97S, K98I, H99Y, I101T, Y106F, G107A
VL: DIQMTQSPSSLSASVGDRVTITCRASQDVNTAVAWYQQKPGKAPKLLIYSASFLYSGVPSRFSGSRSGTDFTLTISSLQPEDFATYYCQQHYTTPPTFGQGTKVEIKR
B31: Trastuzumab HCDR3 variant ATNAFGLWSYGF (Fab, V domains shown)
VH: B7 VH with S98T, G99N, D100A, L101F, T102G, A103L, G104W, S106Y, Q107G, T108F
VL: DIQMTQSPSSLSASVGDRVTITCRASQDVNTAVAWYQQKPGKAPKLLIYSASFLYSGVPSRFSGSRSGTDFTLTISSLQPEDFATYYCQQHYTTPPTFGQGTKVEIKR
B32: Trastuzumab HCDR3 variant ARYLSYSYAWDN (Fab, V domains shown)
VH: B1 VH with E101S, T103S, Y108N
VL: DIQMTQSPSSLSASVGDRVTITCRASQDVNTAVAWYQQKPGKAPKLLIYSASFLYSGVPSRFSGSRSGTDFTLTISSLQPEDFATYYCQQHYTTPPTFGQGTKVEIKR
B33: Trastuzumab HCDR3 variant ARYGYGYYYYFDY (Fab, V domains shown)
VH: EVQLVESGGGLVQPGGSLRLSCAASGFNIKDTYIHWVRQAPGKGLEWVARIYPTNGYTRYADSVKGRFTISADTSKNTAYLQMNSLRAEDTAVYYCARYGYGYYYYFDYWGQGTLVTVSS
VL: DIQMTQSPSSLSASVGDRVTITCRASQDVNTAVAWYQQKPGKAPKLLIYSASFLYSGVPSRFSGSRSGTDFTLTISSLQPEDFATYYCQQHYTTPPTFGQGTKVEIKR
B34: Trastuzumab HCDR3 variant AKFERGYYSFDFG (Fab, V domains shown)
VH: B33 VH with R98K, Y99F, G100E, Y101R, Y105S, Y106F, F107D, D108F, Y109G
VL: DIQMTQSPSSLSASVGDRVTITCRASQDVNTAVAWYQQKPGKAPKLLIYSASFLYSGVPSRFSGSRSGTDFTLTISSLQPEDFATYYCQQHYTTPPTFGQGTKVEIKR
B35: Trastuzumab HCDR3 variant AKYTRGFSYGFGY (Fab, V domains shown)
VH: B33 VH with R98K, G100T, Y101R, Y103F, Y104S, Y106G, D108G
VL: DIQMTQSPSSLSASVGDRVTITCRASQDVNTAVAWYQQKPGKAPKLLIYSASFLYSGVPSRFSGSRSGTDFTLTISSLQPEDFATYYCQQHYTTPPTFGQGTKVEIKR
B36: Trastuzumab HCDR3 variant ANVGSSLGIAALD (Fab, V domains shown)
VH: EVQLVESGGGLVQPGGSLRLSCAASGFNIKDTYIHWVRQAPGKGLEWVARIYPTNGYTRYADSVKGRFTISADTSKNTAYLQMNSLRAEDTAVYYCANVGSSLGIAALDWGQGTLVTVSS
VL: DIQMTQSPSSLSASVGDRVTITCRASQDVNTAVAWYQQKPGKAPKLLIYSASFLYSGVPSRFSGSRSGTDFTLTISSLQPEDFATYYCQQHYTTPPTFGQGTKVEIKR
B37: Trastuzumab HCDR3 variant AGSVAEGWYHYRD (Fab, V domains shown)
VH: EVQLVESGGGLVQPGGSLRLSCAASGFNIKDTYIHWVRQAPGKGLEWVARIYPTNGYTRYADSVKGRFTISADTSKNTAYLQMNSLRAEDTAVYYCAGSVAEGWYHYRDWGQGTLVTVSS
VL: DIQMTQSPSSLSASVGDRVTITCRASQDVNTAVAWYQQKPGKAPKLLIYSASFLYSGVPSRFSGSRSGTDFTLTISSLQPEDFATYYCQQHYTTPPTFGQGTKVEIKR
B38: Trastuzumab HCDR3 variant APWGTYRYGYFDH (Fab, V domains shown)
VH: B33 VH with R98P, Y99W, Y101T, G102Y, Y103R, Y105G, Y109H
VL: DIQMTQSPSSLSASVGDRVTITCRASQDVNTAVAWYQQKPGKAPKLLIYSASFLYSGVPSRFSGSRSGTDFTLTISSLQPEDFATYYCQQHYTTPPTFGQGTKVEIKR
B39: Trastuzumab HCDR3 variant AKFHWGEDWLSDN (Fab, V domains shown)
VH: B33 VH with R98K, Y99F, G100H, Y101W, Y103E, Y104D, Y105W, Y106L, F107S, Y109N
VL: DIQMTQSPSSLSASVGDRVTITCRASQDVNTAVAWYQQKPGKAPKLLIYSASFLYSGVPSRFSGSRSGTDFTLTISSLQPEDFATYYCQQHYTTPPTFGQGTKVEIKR
B40: Trastuzumab HCDR3 variant AGYEGYGLYPFAY (Fab, V domains shown)
VH: B33 VH with R98G, G100E, Y101G, G102Y, Y103G, Y104L, Y106P, D108A
VL: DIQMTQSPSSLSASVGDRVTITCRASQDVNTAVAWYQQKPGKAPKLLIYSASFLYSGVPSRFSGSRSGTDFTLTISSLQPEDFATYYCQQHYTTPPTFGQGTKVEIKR
B41: Trastuzumab HCDR3 variant AGSSASGWYHYTT (Fab, V domains shown)
VH: B37 VH with V100S, E102S, R108T, D109T
VL: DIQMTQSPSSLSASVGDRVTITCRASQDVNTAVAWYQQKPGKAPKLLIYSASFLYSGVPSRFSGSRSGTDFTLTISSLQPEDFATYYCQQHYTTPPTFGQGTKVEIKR
B42: Trastuzumab HCDR3 variant AIWSMYDVGYYPF (Fab, V domains shown)
VH: EVQLVESGGGLVQPGGSLRLSCAASGFNIKDTYIHWVRQAPGKGLEWVARIYPTNGYTRYADSVKGRFTISADTSKNTAYLQMNSLRAEDTAVYYCAIWSMYDVGYYPFWGQGTLVTVSS
VL: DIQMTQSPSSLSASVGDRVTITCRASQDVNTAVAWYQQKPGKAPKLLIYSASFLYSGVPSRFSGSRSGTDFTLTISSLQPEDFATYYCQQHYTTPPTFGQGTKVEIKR

Biological target: human epidermal growth factor receptor 2 (HER2) extracellular domain (human, UniProt P04626 23-629)
Test: SPR

Row | Binder | Kd [µM] | log(KD (M))
1 | B1 | 0.218 | -6.66 log(M)
2 | B2 | 0.0601 | -7.22 log(M)
3 | B3 | 0.0599 | -7.22 log(M)
4 | B4 | 0.0623 | -7.21 log(M)
5 | B5 | 0.0299 | -7.53 log(M)
6 | B6 | 0.0852 | -7.07 log(M)
7 | B7 | 0.219 | -6.66 log(M)
8 | B8 | 0.234 | -6.63 log(M)
9 | B9 | 0.0434 | -7.36 log(M)
10 | B10 | 0.12 | -6.92 log(M)
11 | B11 | 0.0783 | -7.11 log(M)
12 | B12 | 0.0743 | -7.13 log(M)
13 | B13 | 0.0323 | -7.49 log(M)
14 | B14 | 0.0548 | -7.26 log(M)
15 | B15 | 0.0518 | -7.29 log(M)
16 | B16 | 0.0704 | -7.15 log(M)
17 | B17 | 0.0344 | -7.46 log(M)
18 | B18 | 0.0331 | -7.48 log(M)
19 | B19 | 0.0964 | -7.02 log(M)
20 | B20 | 0.0568 | -7.25 log(M)
21 | B21 | 0.0361 | -7.44 log(M)

Row | Binder | Kd [µM] | log(KD (M))
22 | B22 | 0.0612 | -7.21 log(M)
23 | B23 | 0.102 | -6.99 log(M)
24 | B24 | 0.116 | -6.94 log(M)
25 | B25 | 0.0402 | -7.4 log(M)
26 | B26 | 0.0716 | -7.15 log(M)
27 | B27 | 0.0289 | -7.54 log(M)
28 | B28 | 0.117 | -6.93 log(M)
29 | B29 | 0.0781 | -7.11 log(M)
30 | B30 | 0.0504 | -7.3 log(M)
31 | B31 | 0.0528 | -7.28 log(M)
32 | B32 | 0.0426 | -7.37 log(M)
33 | B33 | 0.0391 | -7.41 log(M)
34 | B34 | 0.0383 | -7.42 log(M)
35 | B35 | 0.0378 | -7.42 log(M)
36 | B36 | 0.0367 | -7.44 log(M)
37 | B37 | 0.0603 | -7.22 log(M)
38 | B38 | 0.0676 | -7.17 log(M)
39 | B39 | 0.0591 | -7.23 log(M)
40 | B40 | 0.128 | -6.89 log(M)
41 | B41 | 0.0423 | -7.37 log(M)
42 | B42 | 0.0718 | -7.14 log(M)
